From patent publication US20180344813A1, “ENGINEERED POLYPEPTIDES HAVING ENHANCED DURATION OF ACTION WITH REDUCED IMMUNOGENICITY” (priority 2016, published 2018)

Experiments:
NIH/Swiss mice = assay: OGTT DOA (oral glucose tolerance test duration of action); assay type: in vivo, mouse; conditions: NIH/Swiss mice; drug given 24 hours before OGTT
Experimental: For example, duration can be performed using an oral glucose tolerance test (OGTT) in which the drug is administered to the subject at a desired time point before the glucose is administered orally(to measure drug duration of action; OGTT DOA) and glucose blood levels are measured (e.g. readily done in mice).
Drug was administered to 4-hr fasted NIH/Swiss mice. […] Blood glucose was measured with a OneTouch® Ultra® (LifeScan, Inc., a Johnson & Johnson Company, Milpitas, Calif.). *p<0.05 vs. vehicle control; ANOVA, Dunnett's test. Glucose lowering as percent lowering compared to vehicle is given (negative value indicates lowering of glucose) at 30 minutes post gavage.

GLP-1 receptor = biological target: T1, GLP-1 receptor (Rattus norvegicus, UniProt P32301); assay: GLP-1 receptor functional assay: cAMP induction (HTRF) in rat thyroid carcinoma 6-23 (clone 6) cells; assay type: cell-based
T1 construct: functional activity was determined using cells that endogenously express GLP-1R; endogenous in cells; host or cells: rat thyroid carcinoma 6-23 (clone 6) cells
T1 sequence (P32301 22-463): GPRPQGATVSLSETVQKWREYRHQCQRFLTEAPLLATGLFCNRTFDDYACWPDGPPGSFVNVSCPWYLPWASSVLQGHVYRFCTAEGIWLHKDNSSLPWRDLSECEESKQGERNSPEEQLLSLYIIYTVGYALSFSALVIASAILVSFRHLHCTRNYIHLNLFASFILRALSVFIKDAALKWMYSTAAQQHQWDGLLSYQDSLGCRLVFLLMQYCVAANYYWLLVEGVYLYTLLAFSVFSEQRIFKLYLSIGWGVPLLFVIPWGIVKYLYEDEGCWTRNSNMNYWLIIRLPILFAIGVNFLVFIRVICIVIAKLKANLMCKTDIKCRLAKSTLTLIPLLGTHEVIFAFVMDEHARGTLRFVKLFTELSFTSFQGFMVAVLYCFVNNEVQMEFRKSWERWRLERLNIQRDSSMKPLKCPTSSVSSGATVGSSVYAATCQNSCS

B1: HGEGTFTSDLSKQLEEEAVRLFIEWLKNTGGGGSASGSLAEAKEAANAELDSYGVS DFYKRLIDKAKTVEGVEALKDAILAALP (protein)
chain: HGEGTFTSDLSKQLEEEAVRLFIEWLKNTGGGGSASGSLAEAKEAANAELDSYGVSDFYKRLIDKAKTVEGVEALKDAILAALP
NIH/Swiss mice
  activity in OGTT DOA when dosed at t-24 hours: did not display 24 duration
GLP-1 receptor
  in vitro activity against the GLP-1 receptor: active in vitro against the GLP-1 receptor
